Assay results taken from patent US20240349752A1 (CLARA FOODS, published 2024).

Biological target: bovine trypsin (bovine, UniProt P00760 24-246)
Assay: cell-based or functional assay

bovine trypsin, sequence (P00760 24-246): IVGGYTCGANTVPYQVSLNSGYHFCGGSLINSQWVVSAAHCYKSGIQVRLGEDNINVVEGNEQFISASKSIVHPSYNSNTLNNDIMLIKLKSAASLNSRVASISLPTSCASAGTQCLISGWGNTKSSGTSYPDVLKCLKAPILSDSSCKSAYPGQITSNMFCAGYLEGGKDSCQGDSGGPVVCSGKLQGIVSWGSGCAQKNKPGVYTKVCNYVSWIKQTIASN

B1: Native chicken Ovomucoid (other)
chain: AEVDCSRFPNATDKEGKDVLVCNKDLRPICGTDGVTYTNDCLLCAYSIEFGTNISKEHDGECKETVPMNCSSYANTTSEDGKVMVLCNRAFNPVCGTDGVTYDNECLLCAHKVEQGASVDKRHDGGCRKELAAVSVDCSEYPKPDCTAEDRPLCGSDNKTYGNKCNFCNAVVESNGTLTLSHFGKC
modifications: complex branched N-linked glycosylation (includes mannose)
With B1 as the binder, how does the Trypsin inhibition activity read?
Its Trypsin inhibition activity is 13700 TIU/g.
